Measured values as given in patent US20130040837, “APTAMER CELL COMPOSITIONS” (BRIGHAM AND WOMEN'S HOSPITAL, INC., published 2013).

How the values were obtained:
[1] = target: P-selectin (UniProt P16109 P16109:42-771); assay: specificity control, static adhesion normalised to L-Aptamer-MSC on L-selectin; settings: tags: P-selectin-Fc, coated on surface; chain copies: 2; label: 5'-biotin
[2] = target: T1, L-selectin (UniProt P14151 P14151:39-332); assay: specificity control, P-Aptamer-MSC on L-selectin; settings: tags: coated on surface; label: 5'-biotin
T1 sequence: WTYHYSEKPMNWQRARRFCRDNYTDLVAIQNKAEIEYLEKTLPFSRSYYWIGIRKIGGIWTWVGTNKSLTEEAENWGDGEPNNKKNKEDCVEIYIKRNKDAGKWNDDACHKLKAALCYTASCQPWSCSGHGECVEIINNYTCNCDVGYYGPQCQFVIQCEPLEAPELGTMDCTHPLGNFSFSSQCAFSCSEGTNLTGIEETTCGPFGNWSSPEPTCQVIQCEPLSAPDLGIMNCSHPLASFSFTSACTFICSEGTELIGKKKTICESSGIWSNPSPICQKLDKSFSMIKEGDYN

[3] = target: T2, PDGF-BB (platelet-derived growth factor) (UniProt P01127 P01127:82-190); assay: Cy3 quenched and Cy5 enhanced with 10 nM PDGF; solution in PBS and on MSCs in PBS, PBS with Ca/Mg and medium; settings: chain copies: 2 (inferred); label: 5'-Cy5; complementary strand 5'-biotin, internal Cy3
[4] = target: T2, PDGF-BB (platelet-derived growth factor); assay: fluorescence quenching by flow cytometry on beads and MSCs, 10 nM PDGF; detection range several hundred pM to low nM on cells in PBS; best in PBS, then PBS with 0.9 mM CaCl2 and 0.5 mM MgCl2, then medium; settings: chain copies: 2 (inferred); label: 5'-FAM; complementary strand 5'-biotin, 3'-dabcyl
Procedure: FIGS. 11C-11D are bar graphs depicting the performance of sensors 1 and 2 immobilized on streptavidin beads for detection of PDGF in PBS (11C) and PBS with 0.9 mM CaCl₂ and 0.5 mM MgCl₂ (11D) were studied by flow cytometry. Upon adding PDGF (10 nM), the FAM green signal is quenched. Sensor 2 functions better than sensor 1 in PBS with and without Ca/Mg.
A PDGF aptamer sensor was synthesized with FAM at the 5′ end of the aptamer and a quencher, dabcyl, at the 3′ end of the complementary strand, with a biotin molecule attached at the other end (FIG. 11A). Upon binding to the target PDGF, the aptamer undergoes a conformational change which brings FAM and dabcyl closer to each other and the fluorescence of FAM is quenched. One base pair C-G of the aptamer sensor was eliminated by changing a C base to A base (FIG. 11B). Therefore, sensor 2 has less nonspecific folding and better performance in the presence of divalent metal ions than sensor 1. Sensor 1 and 2 were immobilized on streptavidin beads, and their performances in PBS (FIG. 11C) and PBS with Ca/Mg (FIG. 11D) were studied by flow cytometry and microscopy (FIGS. 12A-12B). Upon adding PDGF (10 nM), the FAM green signal was quenched. Sensor 2 functioned better than sensor 1 in PBS with and without Ca/Mg.

[5] = target: T1, L-selectin; assay: static adhesion normalised to L-Aptamer-MSC; PBS-MSC background 6.4±1.78; settings: tags: coated on surface; label: 3'-biotin
Procedure: After we confirmed the successful conjugation and the availability of aptamers on the MSC surface, we investigated the interactions between L-Aptamer-MSCs and L-selectin coated surfaces under both static and flow conditions. For the static adhesion assay, aptamer modified and unmodified MSCs were incubated with L-selectin coated surfaces for 10 minutes, and unbound cells were then removed through rinsing.

T2 sequence (P01127 82-190, one chain of several): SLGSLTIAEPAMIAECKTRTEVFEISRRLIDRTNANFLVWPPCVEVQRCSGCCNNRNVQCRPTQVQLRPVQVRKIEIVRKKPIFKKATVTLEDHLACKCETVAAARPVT
P-selectin, sequence (P16109 42-771, one chain of several): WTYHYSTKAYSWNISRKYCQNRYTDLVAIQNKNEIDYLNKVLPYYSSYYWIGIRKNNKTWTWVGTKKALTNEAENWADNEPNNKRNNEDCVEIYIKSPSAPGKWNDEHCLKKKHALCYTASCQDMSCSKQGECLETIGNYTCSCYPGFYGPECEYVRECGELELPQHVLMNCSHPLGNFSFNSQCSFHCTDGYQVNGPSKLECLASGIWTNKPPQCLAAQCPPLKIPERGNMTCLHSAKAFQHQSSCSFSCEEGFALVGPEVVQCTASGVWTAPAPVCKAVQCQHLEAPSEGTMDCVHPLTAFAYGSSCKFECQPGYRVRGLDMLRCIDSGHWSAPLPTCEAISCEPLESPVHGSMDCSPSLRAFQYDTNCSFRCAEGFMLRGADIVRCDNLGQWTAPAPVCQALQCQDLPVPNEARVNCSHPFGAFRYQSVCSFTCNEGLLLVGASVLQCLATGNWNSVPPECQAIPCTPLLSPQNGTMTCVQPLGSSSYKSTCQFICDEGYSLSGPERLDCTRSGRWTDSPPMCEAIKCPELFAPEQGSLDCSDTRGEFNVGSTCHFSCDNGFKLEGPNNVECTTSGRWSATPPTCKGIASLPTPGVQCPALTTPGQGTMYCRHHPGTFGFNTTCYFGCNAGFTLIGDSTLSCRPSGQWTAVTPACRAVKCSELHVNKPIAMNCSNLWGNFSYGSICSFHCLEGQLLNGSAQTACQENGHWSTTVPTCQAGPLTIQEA

B1: L-selectin aptamer (ssDNA)
DNA: TAGCCAAGGTAACCAGTACAAGGTGCTAAACGTAATGGCTTCGGCTTAC
modifications: 3' inverted T
[1]
  binding result: no binding

B2: P-selectin aptamer (ssRNA)
RNA: CUCAACGAGCCAGGAACAUCGACGUCAGCAAACGCGAG
modifications: 2'-F on C and U
[2]
  binding result: no binding

B3: PDGF FRET sensor 5 (structured_DNA)
DNA 1: AAGGCTACGGCACGTAGAGCATCACCATGATCCTGTGTGGTCTGTGTCG
DNA 2: CGACACAGACCACA
[3]
  binding result: binds

B4: PDGF quench sensor 2 (structured_DNA)
DNA 1: AAGGCTACGGCACGTAGAGCATCACCATGATCCTGTGTGGTCTATGTCGTCGTTCG
DNA 2: CGAACGACGACATAGACCACA
[4]
  binding result: binds

B5: scrambled sequence control DNA (ssDNA)
DNA: GATGTAGGGACAGTCAAATGGAGTGGTTCAACCGCCCATCTTCAACAAT
[5]
  binding result: no binding
